According to the supplement of paper PMC9112550, “Optimization of the antimicrobial peptide Bac7 by deep mutational scanning” (BMC Biology, 2022):

test system: Escherichia coli TOP10; test: shrunken log2 fold change of peptide-encoding DNA abundance (4.5 h post-induction vs induction); higher = less antimicrobial activity (less host growth inhibition); settings: time post-induction: 4.5 h; library: site-saturation at positions 5, 18, 19, 20
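Also: peptides expressed intracellularly from a pBAD plasmid library in pooled LB shake-flask culture, induced with 0.3% L-arabinose, DNA abundance read by NGS, three biological replicates, DESeq2 with apeglm shrinkage.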

Sequence	shrunken log2 fold change
RRIRARPPRLPRPRPRPWNYPRP	-0.625
RRIRTRPPRLPRPRPRPYYKPRP	-0.38
RRIRRRPPRLPRPRPRPCVLPRP	-0.027
RRIRMRPPRLPRPRPRPNHVPRP	-0.409
RRIRQRPPRLPRPRPRPIVDPRP	0.0252
RRIRSRPPRLPRPRPRPVVRPRP	0.367
RRIRVRPPRLPRPRPRPGSFPRP	-0.122
RRIRTRPPRLPRPRPRPPRYPRP	0.152
RRIRARPPRLPRPRPRPARNPRP	0.364
RRIRGRPPRLPRPRPRPGWVPRP	0.892
RRIRVRPPRLPRPRPRPLKDPRP	-0.242
RRIRVRPPRLPRPRPRPMNWPRP	-0.474
RRIRTRPPRLPRPRPRPDTFPRP	0.0276
RRIRDRPPRLPRPRPRPSSGPRP	-0.0626
RRIRGRPPRLPRPRPRPSTHPRP	0.159
RRIRDRPPRLPRPRPRPRGVPRP	0.393
RRIRWRPPRLPRPRPRPMPEPRP	-0.236
RRIRYRPPRLPRPRPRPYSMPRP	-0.0134
RRIRIRPPRLPRPRPRPINMPRP	-0.956
RRIRWRPPRLPRPRPRPWMRPRP	0.526
RRIRDRPPRLPRPRPRPMMHPRP	0.937
RRIRKRPPRLPRPRPRPMDVPRP	0.0608
RRIRGRPPRLPRPRPRPMEPPRP	0.245
RRIRMRPPRLPRPRPRPEMTPRP	-0.00169
RRIRFRPPRLPRPRPRPFMNPRP	-0.03

Sequence	shrunken log2 fold change
RRIRWRPPRLPRPRPRPTRHPRP	0.37
RRIRHRPPRLPRPRPRPIHEPRP	-0.153
RRIRFRPPRLPRPRPRPGWIPRP	0.0799
RRIRHRPPRLPRPRPRPREGPRP	0.264
RRIRPRPPRLPRPRPRPYAFPRP	-0.264
RRIRKRPPRLPRPRPRPEAPPRP	0.957
RRIRFRPPRLPRPRPRPYNAPRP	-0.714
RRIRSRPPRLPRPRPRPTHGPRP	0.28
RRIRFRPPRLPRPRPRPWMSPRP	-0.0139
RRIRFRPPRLPRPRPRPLRCPRP	0.0723
RRIRGRPPRLPRPRPRPEECPRP	0.0881
RRIRWRPPRLPRPRPRPWDVPRP	0.0249
RRIRIRPPRLPRPRPRPGQLPRP	0.0335
RRIRDRPPRLPRPRPRPMHYPRP	0.0552
RRIRKRPPRLPRPRPRPCIDPRP	-0.0418
RRIRTRPPRLPRPRPRPRTMPRP	0.0616
RRIRKRPPRLPRPRPRPYGRPRP	-0.0362
RRIRLRPPRLPRPRPRPSKDPRP	-0.364
RRIRRRPPRLPRPRPRPYQLPRP	-0.234
RRIRMRPPRLPRPRPRPGWPPRP	0.595
RRIRMRPPRLPRPRPRPQMGPRP	0.0997
RRIRERPPRLPRPRPRPGFGPRP	0.0959
RRIRLRPPRLPRPRPRPNRQPRP	-0.407
RRIRIRPPRLPRPRPRPYLHPRP	-1.61
RRIRLRPPRLPRPRPRPAFMPRP	-0.112

Sequence	shrunken log2 fold change
RRIRIRPPRLPRPRPRPFMNPRP	-0.16
RRIRARPPRLPRPRPRPLFFPRP	0.577
RRIRRRPPRLPRPRPRPNISPRP	-0.263
RRIRIRPPRLPRPRPRPNCKPRP	-0.658
RRIRGRPPRLPRPRPRPITHPRP	0.0909
RRIRTRPPRLPRPRPRPQWQPRP	0.0822
RRIRLRPPRLPRPRPRPDRGPRP	0.0151
RRIRGRPPRLPRPRPRPLVHPRP	-0.0335
RRIRNRPPRLPRPRPRPHSIPRP	-0.209
RRIRNRPPRLPRPRPRPRDPPRP	0.457
RRIRQRPPRLPRPRPRPLVRPRP	0.0989
RRIRMRPPRLPRPRPRPPYVPRP	-0.0137
RRIRARPPRLPRPRPRPDYTPRP	-0.312
RRIRTRPPRLPRPRPRPAYLPRP	-0.0925
RRIRTRPPRLPRPRPRPLYEPRP	-0.774
RRIRSRPPRLPRPRPRPVCTPRP	-0.0518
RRIRLRPPRLPRPRPRPWSKPRP	-0.547
RRIRIRPPRLPRPRPRPMIEPRP	-0.0216
RRIRCRPPRLPRPRPRPCPVPRP	-0.28
RRIRERPPRLPRPRPRPLNYPRP	-0.176
RRIRDRPPRLPRPRPRPIIQPRP	-0.0678
RRIRGRPPRLPRPRPRPTWGPRP	0.469
RRIRKRPPRLPRPRPRPHHKPRP	-0.176
RRIRWRPPRLPRPRPRPYFSPRP	-0.722
RRIRRRPPRLPRPRPRPTTMPRP	0.32

Sequence	shrunken log2 fold change
RRIRLRPPRLPRPRPRPTEPPRP	0.0962
RRIRFRPPRLPRPRPRPPMKPRP	0.0021
RRIRARPPRLPRPRPRPYCVPRP	0.118
RRIRMRPPRLPRPRPRPLTGPRP	0.0753
RRIRNRPPRLPRPRPRPPPIPRP	0.801
RRIRGRPPRLPRPRPRPEMFPRP	0.0463
RRIRDRPPRLPRPRPRPVALPRP	0.816
RRIRRRPPRLPRPRPRPMYAPRP	0.148
RRIRPRPPRLPRPRPRPPIWPRP	0.268
RRIRGRPPRLPRPRPRPHWGPRP	0.247
RRIRMRPPRLPRPRPRPKFVPRP	0.0832
RRIRVRPPRLPRPRPRPFHHPRP	-0.182
RRIRMRPPRLPRPRPRPLPGPRP	0.8
RRIRHRPPRLPRPRPRPENHPRP	-0.235
RRIRSRPPRLPRPRPRPFCCPRP	-0.14
RRIRVRPPRLPRPRPRPDDIPRP	-0.442
RRIRGRPPRLPRPRPRPVYAPRP	0.0566
RRIRVRPPRLPRPRPRPTVTPRP	0.167
RRIRARPPRLPRPRPRPSFYPRP	-0.155
RRIRIRPPRLPRPRPRPLKWPRP	-0.535
RRIRARPPRLPRPRPRPETRPRP	0.662
RRIRQRPPRLPRPRPRPHEGPRP	-0.0113
RRIRNRPPRLPRPRPRPEHLPRP	0.0408
RRIRRRPPRLPRPRPRPESHPRP	0.589
RRIRSRPPRLPRPRPRPIRPPRP	-0.157

Sequence	shrunken log2 fold change
RRIRYRPPRLPRPRPRPRVFPRP	-0.167
RRIRLRPPRLPRPRPRPNNVPRP	-0.395
RRIRKRPPRLPRPRPRPDPAPRP	0.688
RRIRFRPPRLPRPRPRPVYAPRP	-0.444
RRIRERPPRLPRPRPRPTDSPRP	0.0161
RRIRWRPPRLPRPRPRPCENPRP	0.285
RRIRVRPPRLPRPRPRPCWAPRP	0.154
RRIRCRPPRLPRPRPRPQEWPRP	0.00898
RRIRYRPPRLPRPRPRPITRPRP	0.0448
RRIRRRPPRLPRPRPRPNCTPRP	0.00402
RRIRWRPPRLPRPRPRPRQYPRP	-0.534
RRIRGRPPRLPRPRPRPVVGPRP	0.735
RRIRARPPRLPRPRPRPGHLPRP	0.337
RRIRVRPPRLPRPRPRPTRYPRP	-0.0106
RRIRGRPPRLPRPRPRPLPMPRP	0.666
RRIRLRPPRLPRPRPRPWLLPRP	-0.172
RRIRRRPPRLPRPRPRPTGPPRP	0.369
RRIRRRPPRLPRPRPRPCYHPRP	-0.169
RRIRLRPPRLPRPRPRPEYNPRP	-0.15
RRIRARPPRLPRPRPRPHKAPRP	0.102
RRIRMRPPRLPRPRPRPGNRPRP	0.0934
RRIRYRPPRLPRPRPRPYMAPRP	-1.71
RRIRNRPPRLPRPRPRPVVIPRP	-0.077
RRIRHRPPRLPRPRPRPSGSPRP	-0.175
RRIRERPPRLPRPRPRPCMAPRP	-0.336

Sequence	shrunken log2 fold change
RRIRARPPRLPRPRPRPNYTPRP	-0.329
RRIRLRPPRLPRPRPRPYCWPRP	-0.37
RRIRGRPPRLPRPRPRPTDAPRP	1.14
RRIRFRPPRLPRPRPRPGKQPRP	0.0463
RRIRTRPPRLPRPRPRPFQTPRP	0.0582
RRIRDRPPRLPRPRPRPMCKPRP	0.108
RRIRYRPPRLPRPRPRPHYAPRP	-0.0853
RRIRYRPPRLPRPRPRPAYTPRP	-0.222
RRIRIRPPRLPRPRPRPWALPRP	-0.0173
RRIRERPPRLPRPRPRPVKSPRP	-0.155
RRIRGRPPRLPRPRPRPEMYPRP	0.837
RRIRHRPPRLPRPRPRPLGGPRP	-0.0164
RRIRIRPPRLPRPRPRPDFFPRP	-0.415
RRIRMRPPRLPRPRPRPSIGPRP	-0.00737
RRIRTRPPRLPRPRPRPTVNPRP	-0.217
RRIRCRPPRLPRPRPRPWDHPRP	-0.259
RRIRVRPPRLPRPRPRPKVNPRP	-0.288
RRIRGRPPRLPRPRPRPKYHPRP	0.00515
RRIRMRPPRLPRPRPRPGWFPRP	1.16
RRIRNRPPRLPRPRPRPHAHPRP	-0.0247
RRIRFRPPRLPRPRPRPFIGPRP	-0.362
RRIRARPPRLPRPRPRPSCTPRP	0.44
RRIRCRPPRLPRPRPRPQTFPRP	-0.139
RRIRERPPRLPRPRPRPSTVPRP	-0.0579
RRIRDRPPRLPRPRPRPCMRPRP	0.311
